Reference: paper PMC7057950 (2020)

Target: the molecule itself

B1: hHsp90β (protein)
chain: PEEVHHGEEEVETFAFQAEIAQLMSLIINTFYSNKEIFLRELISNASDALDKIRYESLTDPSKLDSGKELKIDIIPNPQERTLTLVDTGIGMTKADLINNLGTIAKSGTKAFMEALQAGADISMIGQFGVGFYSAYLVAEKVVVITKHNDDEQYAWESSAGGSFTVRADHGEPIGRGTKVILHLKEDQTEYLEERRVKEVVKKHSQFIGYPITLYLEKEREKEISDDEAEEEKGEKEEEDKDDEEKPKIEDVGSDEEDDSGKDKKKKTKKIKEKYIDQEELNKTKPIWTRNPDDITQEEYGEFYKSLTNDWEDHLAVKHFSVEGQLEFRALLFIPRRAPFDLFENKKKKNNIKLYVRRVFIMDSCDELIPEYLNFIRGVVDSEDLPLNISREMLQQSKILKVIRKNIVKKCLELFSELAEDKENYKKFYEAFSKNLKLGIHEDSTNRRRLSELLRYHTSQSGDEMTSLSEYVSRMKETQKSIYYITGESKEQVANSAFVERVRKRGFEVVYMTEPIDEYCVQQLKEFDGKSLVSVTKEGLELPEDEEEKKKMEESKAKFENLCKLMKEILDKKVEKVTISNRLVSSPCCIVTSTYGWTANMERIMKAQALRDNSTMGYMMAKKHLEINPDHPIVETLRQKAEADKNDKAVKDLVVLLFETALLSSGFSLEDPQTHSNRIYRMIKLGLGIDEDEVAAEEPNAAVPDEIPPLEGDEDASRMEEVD
  Kd: ~9.5 nM
